Literature values in PMC3496018.
pKd: −log10 of the molar value.

How the values were obtained:
[1] = target: LRP6 (Homo sapiens) (UniProt O75581)
[2] = target: Syndecan-4 (Homo sapiens) (UniProt P31431)
Sequence of UniProt P31431 (P31431 19-145): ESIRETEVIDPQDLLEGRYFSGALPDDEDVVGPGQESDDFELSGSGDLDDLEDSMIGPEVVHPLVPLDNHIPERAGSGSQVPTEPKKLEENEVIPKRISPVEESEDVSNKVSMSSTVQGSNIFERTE

Sequence of UniProt O75581 (O75581 20-1370): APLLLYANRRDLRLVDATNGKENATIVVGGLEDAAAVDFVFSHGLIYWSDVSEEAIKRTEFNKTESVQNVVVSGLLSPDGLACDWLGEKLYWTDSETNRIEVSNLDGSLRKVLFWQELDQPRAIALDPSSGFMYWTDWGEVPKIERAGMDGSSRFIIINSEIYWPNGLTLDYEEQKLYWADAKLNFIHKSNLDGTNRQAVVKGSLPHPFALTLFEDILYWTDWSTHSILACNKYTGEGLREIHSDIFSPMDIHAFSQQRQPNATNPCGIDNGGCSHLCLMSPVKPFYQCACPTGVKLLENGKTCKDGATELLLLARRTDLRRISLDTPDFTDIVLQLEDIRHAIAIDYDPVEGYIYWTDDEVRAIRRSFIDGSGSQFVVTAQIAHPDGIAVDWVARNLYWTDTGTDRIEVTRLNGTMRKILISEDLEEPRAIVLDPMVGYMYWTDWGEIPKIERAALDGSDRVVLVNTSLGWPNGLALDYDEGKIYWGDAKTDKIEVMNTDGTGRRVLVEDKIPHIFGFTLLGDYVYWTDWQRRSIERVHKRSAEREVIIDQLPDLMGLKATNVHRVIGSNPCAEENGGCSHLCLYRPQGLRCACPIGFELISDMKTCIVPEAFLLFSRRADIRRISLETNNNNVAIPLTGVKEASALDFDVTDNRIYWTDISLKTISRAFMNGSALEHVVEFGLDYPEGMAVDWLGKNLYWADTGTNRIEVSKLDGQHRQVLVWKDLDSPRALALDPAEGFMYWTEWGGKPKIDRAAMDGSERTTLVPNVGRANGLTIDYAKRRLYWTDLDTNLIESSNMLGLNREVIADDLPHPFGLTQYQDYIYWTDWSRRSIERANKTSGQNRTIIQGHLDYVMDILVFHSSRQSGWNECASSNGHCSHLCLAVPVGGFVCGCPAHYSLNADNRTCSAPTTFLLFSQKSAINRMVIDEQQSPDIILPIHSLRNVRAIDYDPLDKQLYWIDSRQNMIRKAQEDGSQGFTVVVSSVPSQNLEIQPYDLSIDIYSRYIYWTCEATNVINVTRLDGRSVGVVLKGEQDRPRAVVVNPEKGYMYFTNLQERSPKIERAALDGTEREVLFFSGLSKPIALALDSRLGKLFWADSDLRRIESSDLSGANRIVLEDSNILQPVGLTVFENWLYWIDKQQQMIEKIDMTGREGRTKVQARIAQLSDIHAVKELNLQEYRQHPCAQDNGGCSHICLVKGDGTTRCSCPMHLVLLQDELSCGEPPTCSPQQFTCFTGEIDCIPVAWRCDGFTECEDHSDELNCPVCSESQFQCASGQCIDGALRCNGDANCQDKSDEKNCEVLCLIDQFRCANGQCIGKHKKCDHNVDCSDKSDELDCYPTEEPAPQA

Row | pKd [1] | pKd [2] | Substance
1 | 8.92 |  | RSPO1 (from UniProt Q2MKA7)
2 |  | 9.06 | RSPO3 (from UniProt Q9BXY4)
